Assay results reported in article PMC9188649 (Molecular cell, 2022).

Target: the molecule itself
Test: cryo-EM structure

B1: hSARM1 (residues 28–724), sample for cryo-EM (enzyme, human, UniProt Q6SZW1 28-724, looked up)
chain: LAVPGPDGGGGTGPWWAAGGRGPREVSPGAGTEVQDALERALPELQQALSALKQAGGARAVGAGLAEVFQLVEEAWLLPAVGREVAQGLCDAIRLDGGLDLLLRLLQAPELETRVQAARLLEQILVAENRDRVARIGLGVILNLAKEREPVELARSVAGILEHMFKHSEETCQRLVAAGGLDAVLYWCRRTDPALLRHCALALGNCALHGGQAVQRRMVEKRAAEWLFPLAFSKEDELLRLHACLAVAVLATNKEVEREVERSGTLALVEPLVASLDPGRFARCLVDASDTSQGRGPDDLQRLVPLLDSNRLEAQCIGAFYLCAEAAIKSLQGKTKVFSDIGAIQSLKRLVSYSTNGTKSALAKRALRLLGEEVPRPILPSVPSWKEAEVQTWLQQIGFSKYCESFREQQVDGDLLLRLTEEELQTDLGMKSGITRKRFFRELTELKTFANYSTCDRSNLADWLGSLDPRFRQYTYGLVSCGLDRSLLHRVSEQQLLEDCGIHLGVHRARILTAAREMLHSPLPCTGGKPSGDTPDVFISYRRNSGSQLASLLKVHLQLHGFSVFIDVEKLEAGKFEDKLIQSVMGARNFVLVLSPGALDKCMQDHDCKDWVHKEIVTALSCGKNIVPIIDGFEWPEPQVLPEDMQAVLTFNGIKWSHEYQEATIEKIIRFLQGRSSRDSSAGSDTSLEGAAPMGPT
  stoichiometry N: 8
